Laboratory results as given in patent publication US20110294728A1, “Antiviral Polypeptides” (priority 2008, published 2011).

Molecular target: monomeric p51 subunit of HIV-1 RT (HIV-1) (UniProt P03366)
Assay: size-exclusion chromatography, 3.5 µM p51 with 20 µM FITC-PAW

monomeric p51 subunit of HIV-1 RT (from UniProt P03366 600-1039) (enzyme)
percent of p51 dimeric: 4.6%
